Values quoted from earlier work as cited in PMC3877210.

Legend:
[1] = target: integrin β1 cytoplasmic tail (Homo sapiens) (UniProt P05556); test: pulldown
[2] = target: integrin β2 cytoplasmic tail (Homo sapiens) (UniProt P05107); test: SPR
[3] = target: integrin β3 cytoplasmic tail (Homo sapiens) (UniProt P05106); test: SPR
[4] = target: integrin β3 cytoplasmic tail (Homo sapiens) (UniProt P05106); test: NMR

Chain of UniProt P05106 (P05106 742-788): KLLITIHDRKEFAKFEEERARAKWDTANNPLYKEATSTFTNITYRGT
Chain of UniProt P05107 (P05107 724-769): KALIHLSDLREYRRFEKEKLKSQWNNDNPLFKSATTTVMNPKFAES
Chain of UniProt P05556 (P05556 752-798): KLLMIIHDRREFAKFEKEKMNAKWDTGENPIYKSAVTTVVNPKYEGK

Kd [1] [nM]	Kd [2] [nM]	Kd [3] [nM]	Kd [4] [nM]	Substance
67	12.5	91		talin F2-F3 F2-F3 (from UniProt Q9Y490)
			273000	talin F3 F3 (from UniProt Q9Y490)
